Earlier results in patent US10487153B2, “Carbonic anhydrase IX-specific antibodies and uses thereof” (National Research Council of Canada, priority 2015, dated 2019).

Biological target: T1, CA-IX (Homo sapiens, UniProt Q16790)
T1 construct: host or cells: patients' own tumour tissue (endogenous)
Settings: >6-year span; compared to a placebo; cited from earlier work

cG250: chimeric version of anti-CA-IX mAb G250, developed as a therapeutic antibody
disease-free survival rate of patients: not improve the disease-free survival rate
